The results in this text go back to US20240174748A1 (INNATE PHARMA, published 2024).

This experiment addresses T1, Cynomolgus NKp46 (Macaca fascicularis (cynomolgus), UniProt Q95JB9 22-254).
T1 construct: also called cynomologus NKp46; macaca fascicularis NKp46
Put plainly: not stated (human IgG1).

T1 sequence (Q95JB9 22-254): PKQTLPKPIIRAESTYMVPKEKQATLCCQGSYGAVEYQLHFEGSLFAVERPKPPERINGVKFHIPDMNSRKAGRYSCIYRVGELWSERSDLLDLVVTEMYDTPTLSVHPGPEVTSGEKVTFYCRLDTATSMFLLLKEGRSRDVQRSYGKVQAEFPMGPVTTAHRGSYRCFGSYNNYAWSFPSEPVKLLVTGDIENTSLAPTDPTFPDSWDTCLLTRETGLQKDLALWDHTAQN

B1: NKp46-4 H2L2 (antibody, human IgG1, V domains shown)
VH: QVQLVQSGAEVKKPGASVKVSCKASGYTFTSFTMHWVRQAPGQGLEWIGYINPSSGYTEYNQKFKDRTTITADKSTSTAYMELSSLRSEDTAVYYCVRGSSRGFDYWGQGTLVTVSS
VL: DIQMTQSPSSLSASVGDRVTITCRASENIYSNLAWFQQKPGKAPKLLVYAATNLADGVPSRFSGSGSGTDYTLTISSLQPEDFATYYCQHFWGTPRTFGGGTKVEIK
notes: Produced as human IgG1
In the case of B1, the “fold lower affinity for cynomolgus NKp46 than for human NKp46” value was determined as 10 fold.

B2: NKp46-4 H3L2 (antibody, human IgG1, V domains shown)
VH: QVQLVQSGAEVKKPGASVKVSCKASGYTFTSFTMHWVRQAPGQGLEWIGYINPSSGYTEYNQKFKDRTTLTADKSTSTAYMELSSLRSEDTAVYYCVRGSSRGFDYWGQGTLVTVSS
VL: DIQMTQSPSSLSASVGDRVTITCRASENIYSNLAWFQQKPGKAPKLLVYAATNLADGVPSRFSGSGSGTDYTLTISSLQPEDFATYYCQHFWGTPRTFGGGTKVEIK
notes: Produced as human IgG1
In the case of B2, the “fold lower affinity for cynomolgus NKp46 than for human NKp46” value amounted to 10 fold.
